The target in test [1] is T1, Mg1LysM (Zymoseptoria tritici, UniProt F9XHX3).
T1 construct: mature single-LysM effector, signal peptide absent; ITC: E. coli Origami pET-SUMO, His-SUMO cut off by ULP1; crystal: P. pastoris GS115, His-FLAG tag; ligand-independent homodimer; chitin site formed by two protomers of neighbouring homodimers
As to the kind of experiment: X-ray crystal structure of the complex ([…] Å). The format is binding. The conditions noted are these: P. pastoris-produced protein; ligand co-purified from host cell wall; site between two protomers of neighbouring homodimers.

Test [2] has as its target (GlcNAc)6. As to the kind of experiment: ITC. In general terms: Isothermal titration calorimetry measures the heat released or taken up as one component is titrated into another.

Regarding `CC(=O)N[C@H]1[C@H](O[C@H]2[C@H](O)[C@@H](NC(C)=O)C(O)O[C@@H]2CO)O[C@H](CO)[C@@H](O[C@@H]2O[C@H](CO)[C@@H](O)[C@H](O)[C@H]2NC(C)=O)[C@@H]1O` (stereo partly shown) [chitin trimer], the “X-ray crystal structure of the complex (2.41 Å)” value in test [1] is recorded as “well-defined electron density for a single chitin trimer bound to one monomer of the a.u”.

As for “Mg1LysM (Zymoseptoria tritici LysM effector), wild type, produced in E. coli (from UniProt A0A1X7S147) K31A”, the other: stoichiometry N in test [2] came out at 0.97.

“Mg1LysM (Zymoseptoria tritici LysM effector), wild type, produced in E. coli (from UniProt A0A1X7S147) T28R” showed an other: stoichiometry N in test [2] of 0.956.

On to “Mg1LysM (Zymoseptoria tritici LysM effector), wild type, produced in E. coli (from UniProt A0A1X7S147) D54A”, for which the other: stoichiometry N in test [2] was 0.902.

The values above are taken from PMC7337405, “A secreted LysM effector protects fungal hyphae through chitin-dependent homodimer polymerization” (PLoS Pathogens, 2020).
